Literature values as cited in publication PMC12858339.

Target: Calmodulin (Homo sapiens) (UniProt P0DP23)

For HIV-1 MA MA (from UniProt O93182), the Kd is listed as 2 µM.
